Measured values: paper PMC7835275

Experiments:
[1] = molecular target: His-tagged DVB1^G90E, full length, from E. coli (rice (Oryza sativa L.)); test: native gel or EMSA; Native-PAGE of the purified His-tagged protein, immunoblot with a His-tag antibody; SDS-PAGE beside it
[2] = molecular target: His-tagged DVB1, full length, from E. coli (rice (Oryza sativa L.)); test: as above

| stoichiometry N [1] | stoichiometry N [2] | Substance |
| --- | --- | --- |
| 2 |  | His-tagged DVB1^G90E, full length, from E. coli (natural protein) |
|  | 2 | His-tagged DVB1, full length, from E. coli (natural protein) |
